This note sets out measurements from patent publication US20180140716A1.

One experiment has as its target CD33 on HL-60 cells (UniProt P20138). As to the kind of experiment: cell-based or functional assay.
For experiment [1], the target named is 5T4 antigen on cells (human (human cancer cell lines)) (UniProt Q13641). As to the kind of experiment: flow cytometry (MFI) on 5T4 expressing cells, anti-Fc FITC detection.
Chain of UniProt Q13641 (Q13641 32-420): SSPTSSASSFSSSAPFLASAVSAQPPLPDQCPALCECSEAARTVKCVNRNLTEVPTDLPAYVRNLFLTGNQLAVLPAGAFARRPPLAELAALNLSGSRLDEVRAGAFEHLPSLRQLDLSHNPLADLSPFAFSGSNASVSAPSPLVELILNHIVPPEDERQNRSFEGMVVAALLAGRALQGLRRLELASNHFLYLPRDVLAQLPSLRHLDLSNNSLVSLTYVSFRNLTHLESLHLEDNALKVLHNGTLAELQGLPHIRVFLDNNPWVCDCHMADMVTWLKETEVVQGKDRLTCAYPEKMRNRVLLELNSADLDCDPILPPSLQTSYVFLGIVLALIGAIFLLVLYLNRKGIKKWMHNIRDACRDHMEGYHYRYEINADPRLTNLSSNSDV

Chain of UniProt P20138 (P20138 18-364 limits assumed): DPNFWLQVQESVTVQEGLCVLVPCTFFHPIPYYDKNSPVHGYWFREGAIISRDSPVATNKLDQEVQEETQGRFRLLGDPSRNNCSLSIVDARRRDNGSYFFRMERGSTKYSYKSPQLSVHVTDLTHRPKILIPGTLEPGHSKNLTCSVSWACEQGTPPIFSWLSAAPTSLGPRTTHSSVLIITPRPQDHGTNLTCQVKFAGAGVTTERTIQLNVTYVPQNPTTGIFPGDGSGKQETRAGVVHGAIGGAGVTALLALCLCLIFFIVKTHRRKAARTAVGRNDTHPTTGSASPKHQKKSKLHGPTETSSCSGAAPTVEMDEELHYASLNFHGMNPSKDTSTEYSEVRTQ

Regarding “Lintuzumab-((EG2-MI (2%)-(10 kDa PHF-BA (30%)-(AF-HPA-Ala (9%)), AF-HPA:lintuzumab about 10:1 to about 15:1 (antibody)”, the IC50, antiproliferation (Cell Titer-Glo), HL-60 cells in the experiment with CD33 on HL-60 cells amounted to 770 pM. In experiment [1], non-binding scFvFc fusion protein yielded a fold less binding than the anti-5T4 scFvFc proteins of 200 fold less.
